Data: paper PMC8660799, “Cryo-EM reveals unique structural features of the FhuCDB Escherichia coli ferrichrome importer” (Communications Biology, 2021)
Substitutions are numbered along the chain they refer to.

Tests used:
Details in all cases: both partners purified
FhuCB wild-type [1] = target: T1, FhuCB wild-type (Escherichia coli, UniProt P07821 1-265; P06972 1-660, red-tris-NTA 2nd generation dye on the His-tag); assay: MST; 40 nM FhuCB in detergent, His-tag labelled with red-tris-NTA 2nd generation dye; serial dilution of 30 μM FhuD without substrate; no ATP-Mg; Monolith NT.115pico, 20% LED power, medium MST power
T1 construct: FhuC, ATPase subunit, Escherichia coli; whole operon cloned from the genome, FhuD gene deleted; thrombin site after the His-tag; FhuB, membrane subunit, Escherichia coli, 660 residues; also called FhuCB subcomplex; source: E. coli BL21(DE3) C43, purified (TALON, Superose 6 gel filtration) in LMNG; not shown: His-tag, N-terminal, kept; copies: 2 + 1
T1 sequence (looked up) 1: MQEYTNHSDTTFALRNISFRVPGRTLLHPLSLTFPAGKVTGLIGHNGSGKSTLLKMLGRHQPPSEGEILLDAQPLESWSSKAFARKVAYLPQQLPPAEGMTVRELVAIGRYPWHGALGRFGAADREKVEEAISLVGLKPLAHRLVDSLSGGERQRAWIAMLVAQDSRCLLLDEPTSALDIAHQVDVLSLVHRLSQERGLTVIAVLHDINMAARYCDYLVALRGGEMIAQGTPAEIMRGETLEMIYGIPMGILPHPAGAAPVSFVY
T1 sequence (looked up) 2: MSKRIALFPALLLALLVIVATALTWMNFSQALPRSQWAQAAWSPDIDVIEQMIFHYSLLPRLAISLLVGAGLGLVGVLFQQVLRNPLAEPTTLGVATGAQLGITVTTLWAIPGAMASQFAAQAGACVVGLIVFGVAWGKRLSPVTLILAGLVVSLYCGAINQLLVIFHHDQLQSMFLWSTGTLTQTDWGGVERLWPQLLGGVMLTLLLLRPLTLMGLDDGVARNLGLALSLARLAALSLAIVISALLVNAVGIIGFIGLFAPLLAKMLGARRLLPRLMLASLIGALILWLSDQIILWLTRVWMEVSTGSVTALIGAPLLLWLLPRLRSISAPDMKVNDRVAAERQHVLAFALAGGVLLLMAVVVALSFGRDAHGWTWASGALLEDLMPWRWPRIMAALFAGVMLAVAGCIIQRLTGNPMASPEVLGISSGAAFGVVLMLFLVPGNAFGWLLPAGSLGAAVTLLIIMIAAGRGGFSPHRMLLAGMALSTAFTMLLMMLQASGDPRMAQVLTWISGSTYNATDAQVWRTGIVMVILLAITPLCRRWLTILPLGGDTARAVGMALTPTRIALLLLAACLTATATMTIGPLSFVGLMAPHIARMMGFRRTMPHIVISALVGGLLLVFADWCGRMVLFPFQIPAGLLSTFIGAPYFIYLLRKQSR

FhuCB wild-type [2] = target: T1, FhuCB wild-type; assay: MST; 40 nM FhuCB in detergent, His-tag labelled with red-tris-NTA 2nd generation dye; serial dilution of 30 μM FhuD without substrate; with ATP-MgCl2; Monolith NT.115pico, 20% LED power, medium MST power
FhuCB with FhuB S57A = target: T2, FhuCB with FhuB S57A (Escherichia coli, UniProt P07821 1-265; P06972 1-660, S57A, red-tris-NTA 2nd generation dye on the His-tag); assay: MST; 40 nM FhuCB (wild type or FhuB mutant) in detergent, His-tag labelled with red-tris-NTA 2nd generation dye; serial dilution of 1.6 μM FhuD with substrate ferrichrome; with ATP-Mg; Monolith NT.115pico, 20% LED power, medium MST power
T2 construct: FhuC, ATPase subunit, Escherichia coli; as in Dm2; FhuB, membrane subunit, Escherichia coli, 660 residues; Mutant made on the FhuCB-pET15b construct by direct mutagenesis; source: E. coli BL21(DE3) C43, purified (TALON, Superose 6 gel filtration) in LMNG; not shown: His-tag, N-terminal, kept; copies: 2 + 1
T2 sequence (looked up) 1: T1 sequence (looked up) 1
T2 sequence (looked up) 2: T1 sequence (looked up) 2 with S57A

Kd (FhuCB wild-type [1]): 1620 nM
Kd (FhuCB wild-type [2]): 270 nM
Kd (FhuCB with FhuB S57A): 88.4 nM
B1: FhuD (natural protein, Escherichia coli)
chain: AAIDPNRIVALEWLPVELLLALGIVPYGVADTINYRLWVSEPPLPDSVIDVGLRTEPNLELLTEMKPSFMVWSAGYGPSPEMLARIAPGRGFNFSDGKQPLAMARKSLTEMADLLNLQSAAETHLAQYEDFIRSMKPRFVKRGARPLLLTTLIDPRHMLVFGPNSLFQEILDEYGIPNAWQGETNFWGSTAVSIDRLAAYKDVDVLCFDHDNSKDMDALMATPLWQAMPFVRAGRFQRVPAVWFYGATLSAMHFVRVLDNAIGGKA
notes: In 'FhuD-ferrichrome' the protein was loaded with the small molecule ferrichrome; also called FhuD-ferrichrome (when loaded with ferrichrome)
